The values below come from publication PMC3997080.

The target of the assay is αB-crystallin deletion mutant lacking residues 54FLRAPSWF61 (αBΔ54–61) (human) (UniProt P02511). Put plainly: SEC-MALS.

“αB-crystallin deletion mutant lacking residues 54FLRAPSWF61 (αBΔ54–61) (from UniProt P02511 1-175) (natural protein)” came in with a stoichiometry N (subunits/oligomer) of 20.
